Source: patent US20230201308A1, “TREATMENT OF CORONAVIRUS INFECTION WITH […]” (Eiger Biopharmaceuticals, Inc., priority 2020, published 2023)
Where two headings read alike, the source gives them in different places.

What was measured:
[1] = tested on: SARS-CoV-2; assay: Second trial: outpatients with mild to moderate COVID-19, SARS-CoV-2 RNA viral load and clearance; type: in vivo, human
Method: Using the methods and criteria described above in Examples 1-3, a second trial was performed to assess interferon lambda for immediate antiviral therapy at diagnosis in COVID-19 infections. The second trial included a randomized trial of pegylated interferon lambda in outpatients with mild to moderate COVID-19 infection.
Thirty participants were randomly assigned to receive 180 mcg pegylated interferon lambda-1a, and 30 participants were assigned to receive a saline placebo. Patients were followed for 14 days. Nasopharyngeal samples were collected. The baseline SARS-CoV-2 viral load in the interferon lambda group was 6.2 log10 copies/mL and was 4.9 log10 copies/mL in the placebo group. In the interferon lambda group (19 subjects) and placebo (16 subjects) groups, there were a total of 35 subjects with viral loads great or equal to 6 log10 copies/mL.

[2] = tested on: SARS-CoV-2; assay: Third trial (TOGETHER): virological assessment, quantitative real-time PCR of mid-turbinate swabs; type: in vivo, human; conditions: for proportion of participants with a negative swab for SARS-CoV-2 RNA: Canadian cohort
[3] = for Aes: outside of the directed symptom categories
Method: Detailed directed and open-ended symptoms were assessed serially. Because of overlap between symptoms of COVID-19 and potential peginterferon-lambda Aes, symptoms were recorded and Aes were considered any symptom outside of the directed symptom assessment. Laboratory AE severity was graded using the Common Terminology Criteria for Adverse Events (CTCAE) Version 5.0.

[4] = baseline RNA above 10^6 copies/mL
[5] = baseline viral load below 10^6 copies/mL
[6] = Day 7, high baseline viral load
[7] = Baseline Viral Load <10E6 copies/mL
[8] = Baseline Viral Load ≥10E6 copies/mL
[9] = n=30, listed as Peginterferon Lambda
[10] = n=30, listed as peginterferon-lambda

B1: pegylated interferon lambda-1a (protein)
chain: MKPTTTGKGCHIGRFKSLSPQELASFKKARDALEESLKLKNWSCSSPVFPGNWDLRLLQVRERPVALEAELALTLKVLEAAAGPALEDVLDQPLHTLHHILSQLQACIQPQPTAGPRPRGRLHHWLHRLQEAPKKESAGCLEASVTFNLFRLLTRDLKYVADGNLSLRTSTHPEST
modifications: PEG
notes: 180 mcg subcutaneous injection
OR of response (clearance) at Day 7 vs Placebo ([1]; Adjusted for Asymptomatic at baseline, all patients): 2.91
OR of response (clearance) at Day 7 vs Placebo ([1]; Adjusted for Asymptomatic at baseline, ≥10E6 copies/mL): 0.00
OR of response (clearance) at Day 7 vs Placebo ([1]; Adjusted for BMI, all patients): 2.37
OR of response (clearance) at Day 7 vs Placebo ([1]; Adjusted for BMI, ≥10E6 copies/mL): 6.73
OR of response (clearance) at Day 7 vs Placebo ([1]; Adjusted for IFNL4 genotype, all patients): 2.24
OR of response (clearance) at Day 7 vs Placebo ([1]; Adjusted for IFNL4 genotype, ≥10E6 copies/mL): 7.66
OR of response (clearance) at Day 7 vs Placebo ([1]; Adjusted for age, all patients): 2.48
OR of response (clearance) at Day 7 vs Placebo ([1]; Adjusted for age, ≥10E6 copies/mL): 9.42
OR of response (clearance) at Day 7 vs Placebo ([1]; Adjusted for comorbidity, all patients): 2.35
OR of response (clearance) at Day 7 vs Placebo ([1]; Adjusted for comorbidity, ≥10E6 copies/mL): 10.46
OR of response (clearance) at Day 7 vs Placebo ([1]; Adjusted for sex, all patients): 2.36
OR of response (clearance) at Day 7 vs Placebo ([1]; Adjusted for sex, ≥10E6 copies/mL): 6.44
OR of response (clearance) at Day 7 vs Placebo ([1]; Adjusted for viral load at baseline, all patients): 4.12
OR of response (clearance) at Day 7 vs Placebo ([1]; Adjusted for viral load at baseline, ≥10E6 copies/mL): 8.16
OR of response (clearance) at Day 7 vs Placebo ([1]; Adjusted for viral load with interaction, baseline 10E3 copies/mL): 1.45
OR of response (clearance) at Day 7 vs Placebo ([1]; Adjusted for viral load with interaction, baseline 10E4 copies/mL): 1.88
OR of response (clearance) at Day 7 vs Placebo ([1]; Adjusted for viral load with interaction, baseline 10E5 copies/mL): 2.43
OR of response (clearance) at Day 7 vs Placebo ([1]; Adjusted for viral load with interaction, baseline 10E6 copies/mL): 3.14
OR of response (clearance) at Day 7 vs Placebo ([1]; Adjusted for viral load with interaction, baseline 10E7 copies/mL): 4.05
OR of response (clearance) at Day 7 vs Placebo ([1]; Adjusted for viral load with interaction, baseline 10E8 copies/mL): 5.23
OR of response (clearance) at Day 7 vs Placebo ([1]; Adjusted for viral load with interaction, baseline 10E9 copies/mL): 6.76
OR of response (clearance) at Day 7 vs Placebo ([1]; Crude, all patients): 2.32
OR of response (clearance) at Day 7 vs Placebo ([1]; Crude, ≥10E6 copies/mL at baseline): 6.25
viral load decline greater than in placebo group ([1]; Day 3, all patients): 0.82 log copies/mL
viral load decline greater than in placebo group ([1]; Day 5, all patients): 1.67 log copies/mL
viral load decline greater than in placebo group ([1]; Day 7, all patients): 2.42 log copies/mL
viral load decline greater than in placebo group ([1]; Day 14, all patients): 1.77 log copies/mL
median time to viral clearance [1, 4]: 7 (95% CI 6.2-7.8) days
undetectable at Day 7, participants [1, 4]: 15 of 19
undetectable at Day 7, proportion [1, 4]: 79%
OR undetectable at Day 7 vs placebo [1, 5]: 0.35
undetectable at Day 7, participants [1, 5]: 9 of 11
undetectable at Day 7, proportion [1, 5]: 82%
negative for SARS-CoV-2 RNA, participants ([1]; by Day 7, all patients): 24/30
negative for SARS-CoV-2 RNA, proportion ([1]; by Day 7, all patients): 80%
viral level decrease in absolute terms ([1]; by Day 7, all patients): 5.5 log copies/mL
viral load decline ([1]; by Day 7, baseline viral load at or above 10E6 copies/mL): 7.17 log copies/mL
detectable virus at Day 7, participants ([1]; high baseline viral load): 4 of 19
detectable virus at Day 7, proportion ([1]; high baseline viral load): 21%
OR of response at Day 7 for viral load at baseline within the IFN Lambda group ([1]; interaction model, all patients): 0.82
shedding of infectious virus at day 7 ([1]; interferon lambda group): all subjects were below the level of shedding infectious virus at day 7
proportion of participants with a negative swab for SARS-CoV-2 RNA ([2]; Day 0 post injection): 0
proportion of participants with a negative swab for SARS-CoV-2 RNA ([2]; Day 1 post injection): 0
proportion of participants with a negative swab for SARS-CoV-2 RNA ([2]; Day 2 post injection): 7
proportion of participants with a negative swab for SARS-CoV-2 RNA ([2]; Day 3 post injection): 27
proportion of participants with a negative swab for SARS-CoV-2 RNA ([2]; Day 4 post injection): 40
proportion of participants with a negative swab for SARS-CoV-2 RNA ([2]; Day 5 post injection): 60
proportion of participants with a negative swab for SARS-CoV-2 RNA ([2]; Day 6 post injection): 64
odds ratio, below the limit of quantitation vs placebo [2, 6]: 2.13
patients below the limit of quantitation [2, 6]: 50.5%
treatment effect on viral load (Beta) ([2]; Day 7, high baseline viral load (≥192,841,278 copies/mL)): −1.01
median viral load decline from baseline ([2]; Day 7, hospitalized patients): 7.19 log copies/mL
proportion of participants with a negative swab for SARS-CoV-2 RNA ([2]; Day 7 post injection): 86
proportion of participants with a negative swab for SARS-CoV-2 RNA ([2]; Day 8 post injection): 92
proportion of participants with a negative swab for SARS-CoV-2 RNA ([2]; Day 9 post injection): 85
proportion of participants with a negative swab for SARS-CoV-2 RNA ([2]; Day 10 post injection): 92
proportion of participants with a negative swab for SARS-CoV-2 RNA ([2]; Day 11 post injection): 100
proportion of participants with a negative swab for SARS-CoV-2 RNA ([2]; Day 12 post injection): 100
proportion of participants with a negative swab for SARS-CoV-2 RNA ([2]; Day 13 post injection): 100
proportion of participants with a negative swab for SARS-CoV-2 RNA ([2]; Day 14 post injection): 100
median log decline in viral load ([2]; by Day 7, high baseline viral load): 8.29
viral loads by Day 7 ([2]; final analysis): significantly lowered
treatment effect on viral load (Beta) ([2]; low baseline viral load group): 0.22
deaths ([3]; 14 days): No deaths
OR symptom progression vs Placebo, All Symptoms ([3]; All samples): 3.15
OR symptom progression vs Placebo, Fever Syndrome ([3]; All samples): 1.69
OR symptom progression vs Placebo, Gastrointestinal ([3]; All samples): 0.48
OR symptom progression vs Placebo, Mood ([3]; All samples): 0.90
OR symptom progression vs Placebo, Musculoskeletal ([3]; All samples): 1.80
OR symptom progression vs Placebo, Neurologic ([3]; All samples): 5.07
OR symptom progression vs Placebo, Respiratory ([3]; All samples): 4.67
OR symptom progression vs Placebo, Skin ([3]; All samples): 0.76
OR symptom progression vs Placebo, All Symptoms [3, 7]: 1.63
OR symptom progression vs Placebo, Fever Syndrome [3, 7]: 4.83
OR symptom progression vs Placebo, Gastrointestinal [3, 7]: 0.40
OR symptom progression vs Placebo, Mood [3, 7]: 0.32
OR symptom progression vs Placebo, Musculoskeletal [3, 7]: 2.55
OR symptom progression vs Placebo, Neurologic [3, 7]: 1.60
OR symptom progression vs Placebo, Respiratory [3, 7]: 3.67
OR symptom progression vs Placebo, Skin [3, 7]: 0.51
OR symptom progression vs Placebo, All Symptoms [3, 8]: 2.39
OR symptom progression vs Placebo, Fever Syndrome [3, 8]: 1.24
OR symptom progression vs Placebo, Gastrointestinal [3, 8]: 0.58
OR symptom progression vs Placebo, Mood [3, 8]: 1.29
OR symptom progression vs Placebo, Musculoskeletal [3, 8]: 1.19
OR symptom progression vs Placebo, Neurologic [3, 8]: 2.61
OR symptom progression vs Placebo, Respiratory [3, 8]: 5.88
OR symptom progression vs Placebo, Skin [3, 8]: 1.90
Emergency Room visits ([3]; n=30): 1
Hospital admissions ([3]; n=30): 1
Lab Abnormalities (grade 3 or 4), Alanine aminotransferase (ALT) ([3]; n=30): 1
Lab Abnormalities (grade 3 or 4), Aspartate aminotransferase (AST) ([3]; n=30): 1
Lab Abnormalities (grade 3 or 4), Creatinine ([3]; n=30): 0
Lab Abnormalities (grade 3 or 4), Hemoglobin ([3]; n=30): 0
Lab Abnormalities (grade 3 or 4), Lymphocytes ([3]; n=30): 0
Lab Abnormalities (grade 3 or 4), Neutrophils ([3]; n=30): 0
Lab Abnormalities (grade 3 or 4), Platelets ([3]; n=30): 0
Lab Abnormalities (grade 3 or 4), Total bilirubin ([3]; n=30): 0
Lab Abnormalities (grade 3 or 4), White Blood Cells ([3]; n=30): 0
Treatment-Related Aes ([3]; n=30): 0
Treatment-Related SAEs ([3]; n=30): 0
Severe Symptoms, number of patients ([3]; n=30, 14 days): 7
Severe Symptoms, reports ([3]; n=30, 14 days): 20
SAEs [3, 9]: 1
SAEs [3, 10]: One
Aes [3, 9]: 2
Aes [3, 10]: two
aminotransferase elevations compared to placebo ([3]; single 180 mcg s.c.): higher rate of transient aminotransferase elevations
tolerability ([3]; single 180 mcg s.c.): well-tolerated with few adverse events
